Consider 30 sequences from the nanobody polyreactivity screen of Harvey et al. (2022).

This series in a line: yeast display, Sf9 membrane polyspecificity reagent, FACS + sequencing; frameworks hold sequencing errors. The method in brief: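 Galactose-induced (36–48 hours) yeast carrying a synthetic nanobody display library were exposed to 10% biotinylated, detergent-solubilized Sf9 membrane reagent at 4 °C for 1 hour. FACS followed streptavidin microbead enrichment, using low and high (top ~1%) gates for expression (anti-HA) and reagent binding (streptavidin). Colony PCR, MiSeq 2 × 250 sequencing and CDR-length filtering followed. Labels for polyreactivity reflect the gate of origin.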
Consider “PVQLQESGGGLVQAGGSLRLSCAESGNIFDADIMGWYRQAPGKERELVDCIADGGSTNYADSVKGSFTISRDNAKITVYLQMNSLKPEDTAVYYCAAIAYPDIPTCFDYDSDYFFRGQGTQVTVSS”, for which the “polyreactivity (PSR sort gate)” value is given as “low polyreactivity”.

In the case of “QVQLVESGGGLVHAGGSLRLSCAASGSIYVDNAMGWYRQAPGTERELVAVISWIGSSTYYADSVKGRFTISRDNAKYTVYFQMNSLNPEDTAVFYCAAAPSRTLLRQSKYYFWGQGTQVNVSS”, the “polyreactivity (PSR sort gate)” value is on record as “low polyreactivity”.

Take “QVQLVESGGGLVQAGGSLRLSCAASGRTFGRYAMGWYRQAPGKERELVAAINSGSASTYYADSVKGRFTISRDNAKNTVYLEMNSLKPEDPAVYYCAKRVQQSTWYGYGIGYEYWGQGTQVTVSS”: the “polyreactivity (PSR sort gate)” value is “high polyreactivity”.

Take “QVQLVESGGGLVQAGGSLRLSCAASGSIFGIYAMGWYRQAPGKERELVADITYSGGSTYYADSVKGRFTISRDNAKNTVYLQMNSLKPEDTAVYYCAADWVYVNAWTGGWTYEYWGQGTQVTVSS”: the “polyreactivity (PSR sort gate)” value was “high polyreactivity”.

As for “QVQLVESGGGLVQAGGSLRLSCAASGRTFKYYAMGWYRQAPGKERELVAAISLSSGRTYYADSVKGRFTISRDIAKNTVYLQMNSLKPEDTAVYYCARVTTGGYEYWGQGTQVTVSS”, the “polyreactivity (PSR sort gate)” value is “high polyreactivity”.

Regarding “QVQHVESGGGLVQAGGSLRLSCAASGIIFKLYAMGWYRQAPGKEREFVATITKTGGRTYYADSVKGRFTISRDNAKNTVYLQMNSLKPEDTAVYYCAARRVNGKMYYWGQGTQVTVSS”, the “polyreactivity (PSR sort gate)” value is reported as “high polyreactivity”.

Turning to “QVQLVESGGGLVQAGGSLRLSCAASGSTFGWYAMGWYRQAPGIERELVATITSDSSTYYADSVKGRFTISRDNAKNTVYLQMNSLKPQDTAVYYCAATNYWIEYAPGYGLYSVEDDYWGQGTQVTVSS”, the “polyreactivity (PSR sort gate)” value is “low polyreactivity”.

Consider “QVQLVESGGGLVQAGGSLRISCAASGSIFRNYAMGWYRQAPGKERELVAAISRNGGTTYYADSVKGRFTISRDNAKNTVYLQMNSLKPEDTAVYYCARLYYTQKDSKTGYGYWGQGTQVTVSS”, for which the “polyreactivity (PSR sort gate)” value is “high polyreactivity”.

Take “QVQLVESGGGLVQAGGSLRLSCAASGSIFTDNVMGWYRQAPGKERELVAAITYSAASTYYADSVKGRFTISRDNAKNTVYLQMNSLKPEDTAVYYCNARIIYRKWLFRSGTFNYWGQGTQVTVSS”: the “polyreactivity (PSR sort gate)” value is “low polyreactivity”.

As to “QVQLVESAGGLVQAGGSLSLSCAASGRTFIRHAMGRDRQAPGKERELVAAINSGGITNYADSVKGRFTISRVNAKNTVFLKRNSLKPEDTAVYYCAAYKPWYVGLYPWYDYWGQGTQVTVSW”, the “polyreactivity (PSR sort gate)” value is “low polyreactivity”.

For the sequence “QVQLQESGGGLVQVGGSLRLTCAASGTIFIYGFLGWNRQAPGKERELVASINLGGITNYADSVKGRFTISRDNAKNTVYLQMISLKPEDTAVYYCAAYVVTGQNYGYWGQGTQVTVSS”, the “polyreactivity (PSR sort gate)” value is given as “low polyreactivity”.

Take “QVQLVESGGGLVQAGGSLRLSCAASGSIFGYYAMGWYRQAPGKERELVAAITRSGGSTYYADSVKGRFTISRDNAKNTVYLQMNSLKPEDTAVYYCNAVRYAVRLPAFPGYDYWGQGTQVTVSS”: the “polyreactivity (PSR sort gate)” value was “high polyreactivity”.

For “QVQLVESGGGLVQAGGSLRLSCSASGITFPDYAMGWYRQAPVKERELVATISSSGGNTYYADSVKGRFTISRDNAKNTVYLQMNSLKPEDTAVYYCATVSYYWGYDYWGQGTQVTVSS”, the “polyreactivity (PSR sort gate)” value is on record as “low polyreactivity”.

Take “QVQLVESGGGLVQAGGSLRISCAASGGTFQPYAMGWYRQAPGKERELVAAITSSDGSTYYADSVKWRFTISRDNAKNTVYLQMNSLKPEDTAVYYCNATIASGYGDRYVDTSHDYWGQGTQVTVSS”: the “polyreactivity (PSR sort gate)” value was “low polyreactivity”.

For “QVQLVESGGGLVQAGGSLRLICAASGSIFTIYAMGWYRQAPGKERELVAAISYSDTSTYYADSVKGRFTISRDNAKNTVYLQMNSLKPEDTAVYYCAAEDLWYIAYWDDMDYWGQGTQVTVSS”, the “polyreactivity (PSR sort gate)” value is given as “low polyreactivity”.

With “QVQLVESGGGLVQAGGSLRLSCAASGNIFNDNAKGLYRKAPVKERELVAAISSGGSTNYADSVKGRFTISRDYAKNTVYLQMNSLKPEDTAVYYCAAELTLIYWWSLDYWGQGTQVTVSS”, the “polyreactivity (PSR sort gate)” value was “low polyreactivity”.

Regarding “QVQLVESGGGLVQAGGSLRLSCAASGRIFLPYAMGWYGQAPGKERELFASISGSGGRTYYADSVKGRFTISRDHANNTVYLQMISQKPEDTAVYYCANRPVYAGYRFNYWGQGTQLTVSS”, the “polyreactivity (PSR sort gate)” value is “high polyreactivity”.

For the sequence “QVQLVESGGGLVQAGGSLRLSCAASGITFSKYAMGWYRPAPGKERELVAAISSTASTNYADSVKGRFTISRDNAKHTVYFQMNSLKPEDTAVYYCNAGLFFQWFWTYDDYWGQGTQVTVSS”, the “polyreactivity (PSR sort gate)” value is on record as “low polyreactivity”.

For the sequence “QVQRVESGGGLVQAGGSLRLTCAASGITFFVYAMGCYRQAPGKERELVATINWSGASTYYADSVKGRFTISRDNAKNSVYLQMNSLKPEDTAVYYCAKDGHYPLVYLAFDYWGQGTQVTVSS”, the “polyreactivity (PSR sort gate)” value was “low polyreactivity”.

Consider “QVQLVESCGGLDQAGGSLRLSCAASGFMFHLYGMGWYRQAPGKEMEWVAAISSGGRTYYADSVKGRFTISRDNAKNTVYLQMNSLKPEDTAVYYCAVYVAYLYSYYYWGQGTQETVSS”, for which the “polyreactivity (PSR sort gate)” value is recorded as “low polyreactivity”.

On to “QVQLVESGGGLVQAGGSLRLSCAASGRTFRENAMGWYRQAPGKERELVAAISWRAGSTYYADSVKGRFTISRDNAKNTVYLQMNSLKPEDTAVYYCAAKYTVSFYLWGTFNYWGQGTQVTVSS”, for which the “polyreactivity (PSR sort gate)” value is “high polyreactivity”.

Regarding “QVQLVESGGGLDQAGGSLRLSCAASGSTFYGYAMGWYRPAPGKERELVAGISSGDSTNYADSVKGRFTISRDNAKNTVYLQMNSLKPEDTAVYYCARDYSRHKGDYWGQGTQVTVSS”, the “polyreactivity (PSR sort gate)” value is on record as “low polyreactivity”.

For “QVQLVESGGGLVQAGGSLRLSCAASGFIFAYYAMGWYRQAPGKERELVAAISSSGGRTYYADSVKGRFTISRDNAKNTVYLQMNSLQPEDTAVYYCAATLSYYVGVRYDYWGQGTQVTVSS”, the “polyreactivity (PSR sort gate)” value was “high polyreactivity”.

With “QVQLVESGGGLVQAGGSLRLSCAASGSTFYIYAMGWYRQSPGKERELVAVITRGGSTYYADSVKGRFTISRDNAKNTVYLQMNSLKPEDTAVYYCAARYWNGTRDTYGSWGQGTQVTVSS”, the “polyreactivity (PSR sort gate)” value is given as “high polyreactivity”.

For the sequence “QVQLVESGGGLVQAGGSLRLSCAASGFTLRGNAMGWYRQAPGKERELVAAISTGGSTYYADSVKGRFTISRDNAKNTVYLQMNSLKPEDTAVYYCARRGWFHYRYYYWGQGTQVTVSS”, the “polyreactivity (PSR sort gate)” value is recorded as “high polyreactivity”.

Consider “QVQLQESGGGLVQAGGSQRLSCAASGYIFYFQYMGWYRKAPGKEREFVAAISDGANTNYADSVKGRFTISRDNAKNTEYLQLNSLKPEDTAVYYCAVYADENYYYIYWGQGTQVNVSS”, for which the “polyreactivity (PSR sort gate)” value is “low polyreactivity”.

As for “QVHLVESGGGLVQAGGSLRISGAASGSTFGTYAMGWYRQAPGKERELVAAITSGGSTDYADSVKGRFTISRDNAKNTVYLQMNSLKPEDTAVYYCTARGYGYLGRKGGYSYGYYYWGQGNQVTVSS”, the “polyreactivity (PSR sort gate)” value is reported as “low polyreactivity”.

Regarding “QVQLVESGGGLVQAGGSLRLSCAASGSIFNKYAMGWYRQAPGKERELVAAISVSGTRTYYADSVKGRFTISRDNAKNTVYLQMNSLKPEDSAVYYCATKFFRTAYEYWGQGTQVTVSS”, the “polyreactivity (PSR sort gate)” value is recorded as “high polyreactivity”.

On to “QVQLVESGGGLVQAGGSLRLSCAASGSIFIYYAMGWYRHAPGKERELDAAISNGGSTNYADSVKGRFTISRDNGKNTVYLQLNRLKPEDTAVYYCNARLERTPSLYLYGSWGQGTQVTVSS”, for which the “polyreactivity (PSR sort gate)” value is on record as “low polyreactivity”.

Take “QVQLEESGGGLVQAGGSIRLSCAASVSTFVGNAMGWYRKAPGKETEFVATISNSGGRTYYADSVKGRFTISRDNSKNTVYLQMNSLKPEDTAVYFCAADHPAFCPGYSFDYWGQGTQVTVTS”: the “polyreactivity (PSR sort gate)” value is “low polyreactivity”.
